Tested on: endogenous MMR activity
Assay: pCAR-OF β-galactosidase reporter assay for MMR deficiency (in situ X-gal staining)
Format: cell-based, human
Settings: PMS134 expressed from pEF vector in HEK293 cells
Text: A method used to detect MMR deficiency in eukaryotic cells is to employ a reporter gene that has a polynucleotide repeat inserted within the coding region that disrupts its reading frame due to a frame shift. In the case where MMR is defective, the reporter gene will acquire random mutations (i.e. insertions and/or deletions) within the polynucleotide repeat yielding clones that contain a functional reporter gene. An example of the ability to alter desired genes via defective MMR comes from experiments using HEK293 cells (described above), where a mammalian expression construct containing a defective β-galactosidase gene (referred to as pCAR-OF) was transfected into 293PMS134 or 293vec cells as described above. The pCAR-OF vector consists of a β-galactosidase gene containing a 29-basepair poly-CA tract inserted at the 5′ end of its coding region, which causes the wild-type reading frame to shift out-of-frame. […] Another reporter vector called pCAR-IF contains a β-galactosidase in which a 27-bp poly-CA repeat was cloned into the same site as the pCAR-OF gene, but it is biologically active because the removal of a single repeat restores the open reading frame and produces a functional chimeric β-galactosidase polypeptide (not shown). […] Cells were scored positive if the colonies turned blue in the presence of X-gal substrate and scored negative if colonies remained white. […]

B1: PMS134: previously published dominant negative human PMS2 mismatch repair mutant (SEQ ID NO:11/12) (protein, listed as Homo sapiens)
chain: RGGSGVASMERAESSSTEPAKAIKPIDRKSVHQICSGQVVLSLSTAVKELVENSLDAGATNIDLKLKDYGVDLIEVSDNGCGVEEENFEGLTLKHHTSKIQEFADLTQVETFGFRGEALSSLCALSDVTISTCHASAKVGT
dominant negative effect on MMR: robust dominant negative effect

From patent US7638334B2, “Method for generating engineered cells by homologously recombining segments having increased degeneracy” (Morphotek, Inc., priority 2002, dated 2009)
